Laboratory results taken from publication PMC12823420 (Nature, 2024).
Where no end group is shown, it is not given here.

Tests used:
Conditions in all cases: both partners purified
[1] = biological target: T1, Flag-tagged UAP56 (human, UniProt Q13838 1-428); experiment: pull-down; Flag-tagged UAP56 (5 µM) on anti-Flag M2 beads with WT or mutant SARNP (20 µM); buffer A2, room temperature 1 h; Coomassie
T1 construct: Used in an in vitro pull-down analysed by Coomassie staining

[2] = biological target: T2, UAP56 (human, UniProt Q13838 1-428); experiment: pull-down
T2 construct: The methods name 6×His-TwinSTREPII-3C-UAP56 and 10×His-3C-UAP56; also called DDX39B; DDX39

[3] = biological target: T2, UAP56; experiment: pull-down; MBP-tagged full-length or truncated ALYREF (2.5 µM) on amylose resin with 12.5 µM UAP56, UCM-1, N-UBM or C-UBM or 6 µM full-length SARNP; with or without 1 mM ATP and 200 µM 15 U RNA; Coomassie
[4] = biological target: T2, UAP56; experiment: grating-coupled interferometry (GCI); biotinylated UBM or UCM peptides captured on a streptavidin chip; UAP56 injected; 25 mM HEPES pH 7.9, 50 mM KCl, 1 mM MgCl2, 1 mM TCEP, 25 °C; one-to-one model; UCM peptides also with AMP-PNP or AMP-PNP and 15 U RNA

Row | Binder | binding result [1] | binding result [3] | also measured
1 | SARNP-6×His (full-length SARNP) (natural protein, human, UniProt P82979 1-210, looked up, SARNP, human; also called CIP29; recombinant full length SARNP; source: E. coli BL21 DE3 RIL, purified (HisTrap, HiTrapQ, Superdex 200)) MATETVELHKLKLAELKQECLARGLETKGIKQDLIHRLQAYLEEHAEEEANEEDVLGDETEEEETKPIELPVKEEEPPEKTVDVAAEKKVVKITSEIPQTERMQKRAERFNVPVSLESKKAARAARFGISSVPTKGLSSDNKPMVNLDKLKERAQRFGLNVSSISRKSEDDEKLKKRKERFGIVTSSAGTGTTEDTEAKKRKRAERFGIA | binds |  | 
2 | VDVAAEKKVVKITSEIPQTERMQKRAERFNVPVS (also called Sumo-V5–UCM-1; SUMO-V5-3C–UCM; source: E. coli BL21 DE3 RIL, purified (HisTrap, HiTrapQ, Superdex 75)) [10×His-SUMO-3V5-tagged SARNP UCM-1 (residues 82-115)] |  |  | binding result [2]: binds
3 | MBP-tagged ALYREF^C (residues 106–257) (domain or fragment, also called ALYREF harbouring only a C-UBM) not shown |  | binds | 
4 | MBP-tagged ALYREF^N (residues 1–182) (domain or fragment, also called ALYREF construct harbouring only an N-UBM) not shown |  | binds | 
5 | SISRKSEDDEKLKKRKERFGIVTS (also: biotinylated, site not given here) [SARNP UCM-4 peptide, biotinylated] |  |  | Kd [4]: 10 to 20 µM
6 | MBP-SARNP^47–210-3C-3V5-SUMO-10×His (domain or fragment, human, UniProt P82979 47-210, looked up, SARNP, human, residues 47-210; also called MBP-SARNP residues 47-210; SARNP lacking the N-terminal SAP domain; source: E. coli BL21 DE3 RIL, purified; not shown: MBP, N-terminal, kept) EEEANEEDVLGDETEEEETKPIELPVKEEEPPEKTVDVAAEKKVVKITSEIPQTERMQKRAERFNVPVSLESKKAARAARFGISSVPTKGLSSDNKPMVNLDKLKERAQRFGLNVSSISRKSEDDEKLKKRKERFGIVTSSAGTGTTEDTEAKKRKRAERFGIA | binds |  | 
